The supplement of paper PMC9170038

Test system: MS2 coat protein
Assay: apparent KD of MS2 coat protein; designed switch direction (-1 OFF switch, 1 ON switch): -1; higher = weaker reporter binding
Outline: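 SNAP-549-labelled MS2 coat protein was titrated, doubling from 0.7 or 1.5 nM to 3 µM, over designed RNA switches transcribed on Illumina chips by stalled E. coli RNA polymerase. Runs were done without input, with 200 uM small-molecule ligand, or with an oligonucleotide input. Apparent KD is the per-design median over clusters of curve-fitted normalised fluorescence.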

[1] = Eterna round: R95, input ligand: FMN 200 uM
[2] = Eterna round: R95, input ligand: microRNA oligo, concentration not stated
[3] = Eterna round: R95, input ligand: none
[4] = input ligand: microRNA oligo, concentration not stated

Sequence	apparent KD of MS2 coat protein (input ligand: FMN 200 uM)	apparent KD of MS2 coat protein (input ligand: none)	apparent KD of MS2 coat protein [2]	other results
GUGUCGUAAGGAUAUUUACCUGAGCCACUAGAGCGCUUGGAGAAGAAGGUACAUGAGGAUCACCCAUGUGGUGA [Eternabot (L2) Solution 61] (Eterna round: R97, puzzle: Exclusion 4)	1430 nM	2570 nM	–	–
GUGUGCAGAGGAUAUACAUAGUAAAAUAAAAUAUAAUAGGGACAUGAGGAUCACCCAUGUAGAAGGCUGAGUGU [Excluse me!! 23 - Jieux - Exclusion 2] (puzzle: Exclusion 2)	–	–	41.7 nM	apparent KD of MS2 coat protein [1]: 51.2 nM; apparent KD of MS2 coat protein [3]: 46.1 nM
GUGUGCUGAGGAUAUACAGAGGAAGAUAAGAUAAGAUAAUCACAUGAGGAUCACCCAUGUAGAAGGCAGAGUGU [Excluse me!! 16 - Jieux - Exclusion 2] (puzzle: Exclusion 2)	–	–	27 nM	–
GUGUGCUGAGGAUAUACAUAGGAAGAGAAGAGAAGAGAAGGACAUGAGGAUCACCCAUGUAGAAGGCAGAGUGU [Excluse me!! 12 - Jieux - Exclusion 2] (puzzle: Exclusion 2)	–	–	24.5 nM	–
GUGUUGCGAGGAUAUAUAAGGAAAUGUUCUUAGGAUAUGGAACAUGAGGAUCACCCAUGUAGAAGGUGCAUAUC [JR_Ex2_Sub048] (Eterna round: R97, puzzle: Exclusion 2)	48.1 nM	38.7 nM	–	–
GUGUUUUAUGUAGGAUAUGCAUACUGUUAGUAUGCAGAAGGACAUGAGGAUCACCCAUGUAUAUUAUUAUUAUAUAUCAUACAU [MOD2 of Hoglahoo's Title] (Eterna round: R96, puzzle: Exclusion NG 1)	98 nM	18.9 nM	–	apparent KD of MS2 coat protein [4]: 16 nM
GUUAAACAUGAGGAUCACCCAUGUAAGGAUAUGCUGCGGUCGAGAUGAAGUGACUGCAGCAGAAGGUACAAAUG [Mat - Mod of JL D60] (puzzle: Exclusion 1)	–	–	127 nM	apparent KD of MS2 coat protein [1]: 162 nM; apparent KD of MS2 coat protein [3]: 133 nM
GUUAACGUAGGAUAUUAGUACAUGAACAUGAGGAUCACCCAUGUGAGGUAGGUCUUAGAAUAAGAAGGGCGAAGAA [EX5 #28] (Eterna round: R97, puzzle: Exclusion 5)	124 nM	124 nM	–	–
GUUAGUUAAGGAUAUACAGGGAGCCGCGGCGUCUCGCCGCAACAUGAGGAUCACCCAUGUAGAAGGUAGCCAUU [JL ViennaUCT Enbibi mod 1] (puzzle: Exclusion 2)	–	–	25.5 nM	–
GUUAGUUAAGGAUAUACAGGGAGCUGCGGCGUCUCGCCGCAACAUGAGGAUCACCCAUGUAGAAGGUGACCUUU [JL ViennaUCT Enbibi mod 7] (puzzle: Exclusion 2)	–	–	435 nM	–
GUUAUGUUAGGAUAUGCUUAUGGUGGGUGCUCAGACAUGAUGCAGAAGGGACAUGAGGAUCACCCAUGUACUGU [EX4 #19] (Eterna round: R97, puzzle: Exclusion 4)	777 nM	991 nM	–	–
GUUGUUGCGCAGGAUAUCCAGCGACUUGUCGAAGGAGAAGGGCGCACAUGAGGAUCACCCAUGUGCCUCUGUAA [EX6 B.20] (Eterna round: R97, puzzle: Exclusion 6)	43 nM	18.6 nM	–	–
GUUGUUUAUGUAGGAUAUGCCUGGCGUGCCUUUGCAGAAGGACAUGAGGAUCACCCAUGUAACAUGAGGCUCACCCAUGUCGCC [salish99_ExNG1_r04_108] (Eterna round: R96, puzzle: Exclusion NG 1)	220 nM	160 nM	–	apparent KD of MS2 coat protein [4]: 72.6 nM
GUUUCACAUGAGGAUCACCCAUGUGAGGAUAUGGAUUCGCUGGCCGUAGCCAGUGGAUCCAGAAGGCGCGUGAU [JL-ex1-4.21] (Eterna round: R97, puzzle: Exclusion 1)	60.5 nM	61.7 nM	–	–
GUUUGACAUGAGGAUCACCCAUGUAAGGAUAUACGAGUAGAUACUAGAUAGUUAGUAUGUAGAAGGUACGUGUU [EX1 #64] (Eterna round: R97, puzzle: Exclusion 1)	34.6 nM	43.5 nM	–	–
GUUUGACAUGAGGAUCACCCAUGUAAGGAUAUACGAGUAGAUGAUAGAUAGAUAGUAAGUAGAAGGUACGUGUU [Translation] (Eterna round: R97, puzzle: Exclusion 1)	70.6 nM	105 nM	–	–
GUUUUCAGACGGAGAUCCUACAUGAGGAUCACCCAUGUCUCACUAGCUUUUUGCUCGUCUUAUCCUCCUCUGUUCUC [Elimod 28 - Jieux - Sensor, turn-off variant 1] (Eterna round: R97, puzzle: Sensor, turn-off variant 1)	336 nM	460 nM	–	–

Sequence	apparent KD of MS2 coat protein (input ligand: FMN 200 uM)	apparent KD of MS2 coat protein (input ligand: none)	apparent KD of MS2 coat protein [2]	other results
GUUUUCAGACGGAGAUCCUACAUGAGGAUCACCCAUGUCUCUCUUGUUUUUUGCUCGUCUUUUCCUCCUCUGUUCUC [Elimod 32 - Jieux - Sensor, turn-off variant 1] (Eterna round: R97, puzzle: Sensor, turn-off variant 1)	447 nM	515 nM	–	–
UAAAAGCGGAAGGAUAUGUGUCUAAAGUCUGUAGCAGAAGGUCCGACAUGAGGAUCACCCAUGUGACCUGGUGC [Biatceis] (puzzle: Exclusion 6)	–	–	10.3 nM	–
UAAAAGCUAGGAUAUACUGGCACACAACUCAUAAAUUCAAGACAUGAGGAUCACCCAUGUAGAAGGAGCAAAUA [EX2 A.3] (Eterna round: R97, puzzle: Exclusion 2)	63.5 nM	23.6 nM	–	–
UAAAAUAGUGUGAGGAUAUGCUGGUCCUUGGAUCAGCAGAAGGCACAUGAGGAUCACCCAUGUAGUUAAUUAUA [Mat - Exclusion 4 - JL Mod - D24] (puzzle: Brourd's mod of Exclusion 4)	–	–	36.8 nM	–
UAAACAUGGAUAUAACAGUACAUGAGGAUCACCCAUGUUAAUAUGAUAGAUUAUAACAAGUUUUUUUGUCGUCUUAA [Tabletop] (Eterna round: R97, puzzle: Sensor, turn-off variant 1)	85 nM	88 nM	–	–
UAACAAAUUGUCAGGAUAUCAAUCCCGGCCCAGAUUGAGAAGGGACAUGAGGAUCACCCAUGUAUGAUUCUCAA [jl-ex4-4.51 ViennaUCT mod] (Eterna round: R97, puzzle: Brourd's mod of Exclusion 4)	65.4 nM	31.9 nM	–	–
UAACUGUGAGGAUAUUCGUAGUACACGGAGACGUGUAUUACGGAGAAGGCACAUGAGGAUCACCCAUGUUCCUU [Default title] (Eterna round: R97, puzzle: Exclusion 4)	75.6 nM	17.4 nM	–	–
UAACUUCUUGUAAGGAUAUCGGCGCGAAAGCGCAACGAGAAGGUACAUGAGGAUCACCCAUGUGAAAUAAGAAU [Mod of Zala 12 - Jieux - Brourd's Mod of Exclusion 4] (Eterna round: R97, puzzle: Brourd's mod of Exclusion 4)	104 nM	28.3 nM	–	–
UAAGAAGGUGUUAGGAUAUGCAGAGCAGGGCUAAGGCAGAAGGGACAUGAGGAUCACCCAUGUGCUACGGGUGC [Enrainbera] (puzzle: Brourd's mod of Exclusion 4)	–	–	37.2 nM	apparent KD of MS2 coat protein [1]: 51.2 nM; apparent KD of MS2 coat protein [3]: 35.9 nM
UAAGAGUGAGGAUAUACGUCGCUGGUCGGGAUGGACGCAUGACAUGAGGAUCACCCAUGUAGAAGGCACAAAAC [Enxela Mod 10 - Jieux - Exclusion 2] (Eterna round: R97, puzzle: Exclusion 2)	87.6 nM	25.4 nM	–	–
UAAGAGUGAGGAUAUGCGUCGCUGGUCCGGAUGGACGCAUGACAUGAGGAUCACCCAUGUAGAAGGCACAAAAC [Enxela Mod 5 - Jieux - Exclusion 2] (Eterna round: R97, puzzle: Exclusion 2)	23.5 nM	23.5 nM	–	–
UAAGAUUACCGAGGAUAUGGUAGUUUCUAUUAACCAGAAGGCGGACUCAACAUGAGGAUCACCCAUGUAUAAAGGGUAUUAGAU [JR_ExcNG1_Sub041] (Eterna round: R96, puzzle: Exclusion NG 1)	91.7 nM	116 nM	–	apparent KD of MS2 coat protein [4]: 56.4 nM
UAAUAAAAGGAGGAUAUCGUAUCGGAAACGAUACGAGAAGGCUUAACAUGAGGAUCACCCAUGUUCCUCAAUAA [Mat - Exclusion 6 - Eli Mod - D90] (puzzle: Exclusion 6)	–	–	28.6 nM	apparent KD of MS2 coat protein [1]: 59.3 nM; apparent KD of MS2 coat protein [3]: 32.6 nM
UAAUAUAAGCAAAGAUCCUACAUGAGGAUCACCCAUGUGCUCGUCUUAUAAAGUACUAUCACGAAAGUGAUAGUACA [Mat - Sensor v3 - turn-off var 1 - Eli Mod - D81] (puzzle: Sensor v3, turn-off variant 1)	–	–	19.8 nM	apparent KD of MS2 coat protein [1]: 116 nM; apparent KD of MS2 coat protein [3]: 170 nM
UAAUGUAUAUAGGAUAUCUAGCUGGAAACAGCUAGAGAAGGAUGUACAUGAGGAUCACCCAUGUAAAUCAAUAA [Ex6/9-A1] (Eterna round: R97, puzzle: Exclusion 6)	57.5 nM	19.5 nM	–	–
UAAUUAAAUGUGAGGAUAUGCUGGUCCUUGGAUCAGCAGAAGGCACAUGAGGAUCACCCAUGUAAUUUAUUUAU [Mat - Exclusion 4 - JL Mod - D59] (puzzle: Brourd's mod of Exclusion 4)	–	–	54.3 nM	–
UAAUUGAUUAAUAGAUUAUACAUGAGGAUCACCCAUGUAGAUCCUACGUGCCAUUUAAGUAGCUCGUCUUAUUAUUA [Sensor-V1 #65] (Eterna round: R97, puzzle: Sensor, turn-off variant 1)	59.4 nM	64.5 nM	–	–
